Source: the supplement of paper PMC7877785
± gives the uncertainty stated by the source.

Experiment: self-splicing fitness, log relative to wild type (ln ratio); higher = more splicing; Tetrahymena group I intron in knt gene, E. coli kanamycin selection, DiMSum; sequences stand for … in CUCUCU…GGAGGGAAAAGUUAUCAGGCAUGCACCUGGUAGCUAGUCUUUAAACCAAUAGAUUGCAUCGGUUUAAAAGGCAAGACCGUCAAAUUGCGGGAAAGGGGUCAACAGCCGUUCAGUACCAAGUCUCAGGGGAAACUUUGAGAUGGCCUUGCAAAGGGUAUGGUAAUAAGCUGACGGACAUGGUCCUAACCACGCAGCCAAGUCCUAAGUCAACAGAUCUUCUGUUGAUAUGGAUGCAGUUCACAGACUAAAUGUCGGUCGGGGAAGAUGUAUUCUUCUCAUAAGAUAUAGUCGGACCUCUCCUUAAUGGGAGCUAGCGGAUGAAGUGAUGCAACACUGGAGCCGCUGGGAACUAAUUUGUAUGCGAAAGUAUAUUGAUUAGUUUUGGAGUACUCGUGGUCG
Summary of the method: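 DiMSum derived fitness as the error-weighted combination of fold changes across replicates, kanamycin versus no kanamycin, normalised to wild type. E. coli BL21(DE3) held the library, which randomised all eight P1ex-region intron nucleotides within the knt kanamycin-resistance gene on pET-22b(+). Six replicate transformations grew overnight at 37°C or 30°C on LB agar with or without 25 μg/mL kanamycin, also containing 100 μg/mL carbenicillin, 50 μM IPTG and 0.2% rhamnose, and pooled colonies were amplicon-sequenced on an Illumina HiSeq 2500.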

Sequence	self-splicing fitness (ln) (30 °C)	self-splicing fitness (ln) (37 °C)
GGCAAGCAAUAUUACGAGGU	-2.6 ± 0.24	-1.27 ± 0.21
GGCAAGCAAUAUUACGAGUC	-2.64 ± 0.12	-1.78 ± 0.13
GGCAAGCAAUAUUACGAUUA	-0.726 ± 0.1	-0.234 ± 0.093
GGCAAGCAAUAUUACGCAAU	-1.03 ± 0.097	0.802 ± 0.11
GGCAAGCAAUAUUACGCAUC	-0.644 ± 0.078	-0.532 ± 0.1
GGCAAGCAAUAUUACGCAUG	-2.17 ± 0.12	-1.36 ± 0.16
GGCAAGCAAUAUUACGCCGG	-2.81 ± 0.3	-3.19 ± 0.22
GGCAAGCAAUAUUACGCUCU	-2.51 ± 0.17	-1.96 ± 0.18
GGCAAGCAAUAUUACGCUGA	-1.13 ± 0.12	-1.27 ± 0.14
GGCAAGCAAUAUUACGGAAG	-2.84 ± 0.1	-1.37 ± 0.1
GGCAAGCAAUAUUACGGACA	-0.577 ± 0.085	-0.00922 ± 0.11
GGCAAGCAAUAUUACGGCCA	-1.24 ± 0.17	-0.0702 ± 0.17
GGCAAGCAAUAUUACGGCGA	-0.134 ± 0.082	0.235 ± 0.11
GGCAAGCAAUAUUACGGGAU	-2.31 ± 0.086	-0.713 ± 0.089
GGCAAGCAAUAUUACGGGUA	-1.57 ± 0.1	-0.544 ± 0.11
GGCAAGCAAUAUUACGGGUC	-3.2 ± 0.17	-0.979 ± 0.12
GGCAAGCAAUAUUACGUUGC	-3.67 ± 0.37	-2.42 ± 0.39
GGCAAGCAAUAUUACGUUUG	-3 ± 0.13	-2.83 ± 0.22
GGCCAGCAAUAUUACGAAAC	-0.973 ± 0.079	0.00581 ± 0.1
GGCCAGCAAUAUUACGACCC		-1.48 ± 0.44
GGCCAGCAAUAUUACGACGU	-0.821 ± 0.083	0.2 ± 0.12

Sequence	self-splicing fitness (ln) (30 °C)	self-splicing fitness (ln) (37 °C)
GGCCAGCAAUAUUACGAUAG	-3.68 ± 0.46	-2.95 ± 0.23
GGCCAGCAAUAUUACGAUUC	-0.666 ± 0.067	-0.139 ± 0.099
GGCCAGCAAUAUUACGCACC	-2.17 ± 0.12	-0.636 ± 0.14
GGCCAGCAAUAUUACGCCCU	-1.37 ± 0.16	-0.726 ± 0.15
GGCCAGCAAUAUUACGCCGA	-1.54 ± 0.16	-1.18 ± 0.14
GGCCAGCAAUAUUACGCCGC	-4.33 ± 0.39	
GGCCAGCAAUAUUACGCGAA	-0.824 ± 0.12	-1.41 ± 0.14
GGCCAGCAAUAUUACGCGAU	-3.5 ± 0.14	-2.17 ± 0.14
GGCCAGCAAUAUUACGCGGA	-1.17 ± 0.12	-0.716 ± 0.1
GGCCAGCAAUAUUACGCUAC	-4.15 ± 0.3	-2.57 ± 0.23
GGCCAGCAAUAUUACGCUCC	-3.17 ± 0.24	-1.38 ± 0.24
GGCCAGCAAUAUUACGGGGG	-3.54 ± 0.18	-1.85 ± 0.17
GGCCAGCAAUAUUACGGGUG	-1.02 ± 0.049	-0.536 ± 0.065
GGCCAGCAAUAUUACGGUUC	-3.72 ± 0.17	-0.463 ± 0.12
GGCCAGCAAUAUUACGUACG	-1.8 ± 0.11	-1.1 ± 0.12
GGCCAGCAAUAUUACGUACU	-0.417 ± 0.08	-0.256 ± 0.093
GGCCAGCAAUAUUACGUAUC	-0.633 ± 0.069	-0.494 ± 0.081
GGCCAGCAAUAUUACGUGCC	-3 ± 0.15	-0.478 ± 0.24
GGCGAGCAAUAUUACGACGA	-3.06 ± 0.32	-1.32 ± 0.26
GGCGAGCAAUAUUACGACUA	-0.848 ± 0.12	-0.00409 ± 0.11
GGCGAGCAAUAUUACGAGUG	-1.67 ± 0.19	-1.47 ± 0.3

Sequence	self-splicing fitness (ln) (30 °C)	self-splicing fitness (ln) (37 °C)
GGCGAGCAAUAUUACGAGUU	-2.42 ± 0.14	-1.19 ± 0.16
GGCGAGCAAUAUUACGAUGC	-1.04 ± 0.16	-1.43 ± 0.26
GGCGAGCAAUAUUACGCCUU	-3.21 ± 0.3	-1.81 ± 0.26
GGCGAGCAAUAUUACGCGAG	-2.7 ± 0.24	-2.24 ± 0.32
GGCGAGCAAUAUUACGCGCG		-0.647 ± 0.18
GGCGAGCAAUAUUACGCGGU	-3.13 ± 0.21	-1.69 ± 0.22
GGCGAGCAAUAUUACGCGUC		-2.65 ± 0.39
GGCGAGCAAUAUUACGGCAG		-1.94 ± 0.36
GGCGAGCAAUAUUACGGUUG	-2.57 ± 0.14	-0.892 ± 0.16
GGCGAGCAAUAUUACGUAAA	-2.28 ± 0.16	-1.06 ± 0.15
GGCGAGCAAUAUUACGUAAU	-1.4 ± 0.13	-0.339 ± 0.14
GGCGAGCAAUAUUACGUACU	-0.65 ± 0.13	-0.094 ± 0.15
GGCGAGCAAUAUUACGUCGU	-3.86 ± 0.22	-2.3 ± 0.32
GGCGAGCAAUAUUACGUCUA	-1.86 ± 0.19	-0.451 ± 0.15
GGCGAGCAAUAUUACGUCUG	-4.26 ± 0.29	-2.53 ± 0.16
GGCGAGCAAUAUUACGUGAU	-2.26 ± 0.15	-1.08 ± 0.14
GGCGAGCAAUAUUACGUUGG	-3.75 ± 0.32	-2.92 ± 0.35
GGCGAGCAAUAUUACGUUUC	-2.07 ± 0.23	-1.99 ± 0.26
GGCUAGCAAUAUUACGAUAG		-2.41 ± 0.39
GGCUAGCAAUAUUACGAUUC	-0.162 ± 0.098	-0.0286 ± 0.13
